This is an account of results in patent EP4725969A1 (Latticon (Suzhou) Biopharmaceuticals Co., Ltd., dated 2024).

B1: 2126-Hu-L03 (antibody, IgG1, V domains shown)
VH: QVQLVQSGSELKKPGASVKVSCKASGYTFTDYSMHWVRQAPGQGLEWMGWINTETGEPTYADDFKGRFVFSLDTSVSTAYLQISSLKAEDTAVYFCVRVGRYDYAMDYWGQGTTVTVSS
VL: DIQMTQSPSSLSASVGDRVTITCKASQDVSTAVAWYQQKPGKAPKLLINSASYRYTGVPSRFSGSGSGTDFTLTISSLQPEDFATYYCQQHYSTPPTFGGGTKVEIK
notes: IgG1/Cκ
B2: 2126-Hu-L07 (antibody, IgG1, V domains shown)
VH: QVQLVQSGSELKKPGASVKVSCKASGYTFTDYSMHWVRQAPGQGLEWMGWINTETGEPTYADDFKGRFVFSLDTSVSTAYLQISSLKAEDTAVYFCVRVGRYDYAMDYWGQGTTVTVSS
VL: DIQMTQSPSSLSASVGDRVTITCKASQDVYTAVAWYQQKPGKAPKLLINSASDRYTGVPSRFSGSGSGTDFTLTISSLQPEDFATYYCQQHYSTPPTFGGGTKVEIK
notes: IgG1/Cκ
B3: 2126-Hu-L18 (antibody, IgG1, V domains shown)
VH: QVQLVQSGSELKKPGASVKVSCKASGYTFTDYSMHWVRQAPGQGLEWMGWINTETGEPTYADDFKGRFVFSLDTSVSTAYLQISSLKAEDTAVYFCVRVGRYDYAMDYWGQGTTVTVSS
VL: DIQMTQSPSSLSASVGDRVTITCKASQDVYTAVAWYQQKPGKAPKLLINSASYRYTGVPSRFSGSGSGTDFTLTISSLQPEDFATYYCQQSYSTPPTFGGGTKVEIK
notes: IgG1/Cκ
B4: 2126-Hu-L12 (antibody, IgG1, V domains shown)
VH: QVQLVQSGSELKKPGASVKVSCKASGYTFTDYSMHWVRQAPGQGLEWMGWINTETGEPTYADDFKGRFVFSLDTSVSTAYLQISSLKAEDTAVYFCVRVGRYDYAMDYWGQGTTVTVSS
VL: DIQMTQSPSSLSASVGDRVTITCKASQDVYTAVAWYQQKPGKAPKLLINSASSRYTGVPSRFSGSGSGTDFTLTISSLQPEDFATYYCQQHYSTPPTFGGGTKVEIK
notes: IgG1/Cκ
B5: 2126-Hu-L16 (antibody, IgG1, V domains shown)
VH: QVQLVQSGSELKKPGASVKVSCKASGYTFTDYSMHWVRQAPGQGLEWMGWINTETGEPTYADDFKGRFVFSLDTSVSTAYLQISSLKAEDTAVYFCVRVGRYDYAMDYWGQGTTVTVSS
VL: DIQMTQSPSSLSASVGDRVTITCKASQDVYTAVAWYQQKPGKAPKLLINSASYRPTGVPSRFSGSGSGTDFTLTISSLQPEDFATYYCQQHYSTPPTFGGGTKVEIK
notes: IgG1/Cκ
B6: 2126-Hu-L06 (antibody, IgG1, V domains shown)
VH: QVQLVQSGSELKKPGASVKVSCKASGYTFTDYSMHWVRQAPGQGLEWMGWINTETGEPTYADDFKGRFVFSLDTSVSTAYLQISSLKAEDTAVYFCVRVGRYDYAMDYWGQGTTVTVSS
VL: DIQMTQSPSSLSASVGDRVTITCKASQDVYTAVAWYQQKPGKAPKLLINAASYRYTGVPSRFSGSGSGTDFTLTISSLQPEDFATYYCQQHYSTPPTFGGGTKVEIK
notes: IgG1/Cκ
B7: 2126-Hu-L09 (antibody, IgG1, V domains shown)
VH: QVQLVQSGSELKKPGASVKVSCKASGYTFTDYSMHWVRQAPGQGLEWMGWINTETGEPTYADDFKGRFVFSLDTSVSTAYLQISSLKAEDTAVYFCVRVGRYDYAMDYWGQGTTVTVSS
VL: DIQMTQSPSSLSASVGDRVTITCKASQDVYTAVAWYQQKPGKAPKLLINSASKRYTGVPSRFSGSGSGTDFTLTISSLQPEDFATYYCQQHYSTPPTFGGGTKVEIK
notes: IgG1/Cκ
B8: 2126-Hu-L13 (antibody, IgG1, V domains shown)
VH: QVQLVQSGSELKKPGASVKVSCKASGYTFTDYSMHWVRQAPGQGLEWMGWINTETGEPTYADDFKGRFVFSLDTSVSTAYLQISSLKAEDTAVYFCVRVGRYDYAMDYWGQGTTVTVSS
VL: DIQMTQSPSSLSASVGDRVTITCKASQDVYTAVAWYQQKPGKAPKLLINSASTRYTGVPSRFSGSGSGTDFTLTISSLQPEDFATYYCQQHYSTPPTFGGGTKVEIK
notes: IgG1/Cκ
B9: 2126-Hu-L15 (antibody, IgG1, V domains shown)
VH: QVQLVQSGSELKKPGASVKVSCKASGYTFTDYSMHWVRQAPGQGLEWMGWINTETGEPTYADDFKGRFVFSLDTSVSTAYLQISSLKAEDTAVYFCVRVGRYDYAMDYWGQGTTVTVSS
VL: DIQMTQSPSSLSASVGDRVTITCKASQDVYTAVAWYQQKPGKAPKLLINSASYRETGVPSRFSGSGSGTDFTLTISSLQPEDFATYYCQQHYSTPPTFGGGTKVEIK
notes: IgG1/Cκ
B10: 2126-Hu-L14 (antibody, IgG1, V domains shown)
VH: QVQLVQSGSELKKPGASVKVSCKASGYTFTDYSMHWVRQAPGQGLEWMGWINTETGEPTYADDFKGRFVFSLDTSVSTAYLQISSLKAEDTAVYFCVRVGRYDYAMDYWGQGTTVTVSS
VL: DIQMTQSPSSLSASVGDRVTITCKASQDVYTAVAWYQQKPGKAPKLLINSASYRATGVPSRFSGSGSGTDFTLTISSLQPEDFATYYCQQHYSTPPTFGGGTKVEIK
notes: IgG1/Cκ
B11: 2126-Hu-L11 (antibody, IgG1, V domains shown)
VH: QVQLVQSGSELKKPGASVKVSCKASGYTFTDYSMHWVRQAPGQGLEWMGWINTETGEPTYADDFKGRFVFSLDTSVSTAYLQISSLKAEDTAVYFCVRVGRYDYAMDYWGQGTTVTVSS
VL: DIQMTQSPSSLSASVGDRVTITCKASQDVYTAVAWYQQKPGKAPKLLINSASQRYTGVPSRFSGSGSGTDFTLTISSLQPEDFATYYCQQHYSTPPTFGGGTKVEIK
notes: IgG1/Cκ
B12: 2126-Hu-L10 (antibody, IgG1, V domains shown)
VH: QVQLVQSGSELKKPGASVKVSCKASGYTFTDYSMHWVRQAPGQGLEWMGWINTETGEPTYADDFKGRFVFSLDTSVSTAYLQISSLKAEDTAVYFCVRVGRYDYAMDYWGQGTTVTVSS
VL: DIQMTQSPSSLSASVGDRVTITCKASQDVYTAVAWYQQKPGKAPKLLINSASNRYTGVPSRFSGSGSGTDFTLTISSLQPEDFATYYCQQHYSTPPTFGGGTKVEIK
notes: IgG1/Cκ
B13: 2126-Hu-L08 (antibody, IgG1, V domains shown)
VH: QVQLVQSGSELKKPGASVKVSCKASGYTFTDYSMHWVRQAPGQGLEWMGWINTETGEPTYADDFKGRFVFSLDTSVSTAYLQISSLKAEDTAVYFCVRVGRYDYAMDYWGQGTTVTVSS
VL: DIQMTQSPSSLSASVGDRVTITCKASQDVYTAVAWYQQKPGKAPKLLINSASERYTGVPSRFSGSGSGTDFTLTISSLQPEDFATYYCQQHYSTPPTFGGGTKVEIK
notes: IgG1/Cκ
B14: 2126-Hu-L21 (antibody, IgG1, V domains shown)
VH: QVQLVQSGSELKKPGASVKVSCKASGYTFTDYSMHWVRQAPGQGLEWMGWINTETGEPTYADDFKGRFVFSLDTSVSTAYLQISSLKAEDTAVYFCVRVGRYDYAMDYWGQGTTVTVSS
VL: DIQMTQSPSSLSASVGDRVTITCKASQDVYTAVAWYQQKPGKAPKLLINSASYRYTGVPSRFSGSGSGTDFTLTISSLQPEDFATYYCQQYYSTPPTFGGGTKVEIK
notes: IgG1/Cκ
B15: 2126-Hu-L04 (antibody, IgG1, V domains shown)
VH: QVQLVQSGSELKKPGASVKVSCKASGYTFTDYSMHWVRQAPGQGLEWMGWINTETGEPTYADDFKGRFVFSLDTSVSTAYLQISSLKAEDTAVYFCVRVGRYDYAMDYWGQGTTVTVSS
VL: DIQMTQSPSSLSASVGDRVTITCKASQDVYTYVAWYQQKPGKAPKLLINSASYRYTGVPSRFSGSGSGTDFTLTISSLQPEDFATYYCQQHYSTPPTFGGGTKVEIK
notes: IgG1/Cκ
B16: 2126-Hu-L19 (antibody, IgG1, V domains shown)
VH: QVQLVQSGSELKKPGASVKVSCKASGYTFTDYSMHWVRQAPGQGLEWMGWINTETGEPTYADDFKGRFVFSLDTSVSTAYLQISSLKAEDTAVYFCVRVGRYDYAMDYWGQGTTVTVSS
VL: DIQMTQSPSSLSASVGDRVTITCKASQDVYTAVAWYQQKPGKAPKLLINSASYRYTGVPSRFSGSGSGTDFTLTISSLQPEDFATYYCQQAYSTPPTFGGGTKVEIK
notes: IgG1/Cκ
B17: 2126-Hu-L05 (antibody, IgG1, V domains shown)
VH: QVQLVQSGSELKKPGASVKVSCKASGYTFTDYSMHWVRQAPGQGLEWMGWINTETGEPTYADDFKGRFVFSLDTSVSTAYLQISSLKAEDTAVYFCVRVGRYDYAMDYWGQGTTVTVSS
VL: DIQMTQSPSSLSASVGDRVTITCKASQDVYTAVAWYQQKPGKAPKLLIYSASYRYTGVPSRFSGSGSGTDFTLTISSLQPEDFATYYCQQHYSTPPTFGGGTKVEIK
notes: IgG1/Cκ
B18: 2126-Hu-L17 (antibody, IgG1, V domains shown)
VH: QVQLVQSGSELKKPGASVKVSCKASGYTFTDYSMHWVRQAPGQGLEWMGWINTETGEPTYADDFKGRFVFSLDTSVSTAYLQISSLKAEDTAVYFCVRVGRYDYAMDYWGQGTTVTVSS
VL: DIQMTQSPSSLSASVGDRVTITCKASQDVYTAVAWYQQKPGKAPKLLINSASYRQTGVPSRFSGSGSGTDFTLTISSLQPEDFATYYCQQHYSTPPTFGGGTKVEIK
notes: IgG1/Cκ

The target in the experiment is T1, recombinant human HER2 extracellular domain protein (human, UniProt P04626 23-652).
T1 construct: range 23-652; Range is printed for the immunogen/panning protein; also called ErbB2; recombinant HER2 protein
Briefly: BLI, Protein A capture. (In general: BLI is a label-free optical method that tracks binding on a fibre tip over time.)
Usually Kd stands for the equilibrium constant for the complex coming apart. As usually defined, the koff is the first-order rate constant of dissociation. The kon is the second-order rate constant of association. As to B1, the Kd came to 39.5 nM, the koff is 0.00186 s⁻¹ and the kon stood at 47100 M⁻¹ s⁻¹.

As for B2, the Kd is 6.46 nM, the koff amounted to 0.00061 s⁻¹ and the kon amounted to 94300 M⁻¹ s⁻¹.

B3: the Kd was 8.83 nM, the koff is 0.000912 s⁻¹ and the kon was found to be 103000 M⁻¹ s⁻¹.

Turning to B4, the Kd worked out at 6.13 nM, the koff worked out at 0.000619 s⁻¹ and the kon worked out at 101000 M⁻¹ s⁻¹.

For the molecule B5, the Kd was 4.38 nM, the koff came to 0.000464 s⁻¹ and the kon was 106000 M⁻¹ s⁻¹.

With B6, the Kd stood at 6.63 nM, the koff was determined as 0.000659 s⁻¹ and the kon was found to be 99400 M⁻¹ s⁻¹.

With B7, the Kd was determined as 5.11 nM, the koff worked out at 0.00049 s⁻¹ and the kon turned out to be 95900 M⁻¹ s⁻¹.

With B8, the Kd worked out at 5.34 nM, the koff amounted to 0.000531 s⁻¹ and the kon is 99500 M⁻¹ s⁻¹.

For the molecule B9, the dissociation constant (Kd) came out at 8.29 nM, the koff amounted to 0.000906 s⁻¹ and the kon worked out at 109000 M⁻¹ s⁻¹.

Take B10: the Kd came to 6.48 nM, the koff came out at 0.000666 s⁻¹ and the kon was 103000 M⁻¹ s⁻¹.

Take B11: the Kd came to 6.25 nM, the koff was determined as 0.000651 s⁻¹ and the kon came out at 104000 M⁻¹ s⁻¹.

In the case of B12, the equilibrium dissociation constant (Kd) came out at 5.38 nM, the koff stood at 0.000558 s⁻¹ and the kon is 104000 M⁻¹ s⁻¹.

For the molecule B13, the Kd came to 6.57 nM, the koff came to 0.00062 s⁻¹ and the kon was 94300 M⁻¹ s⁻¹.

As for B14, the Kd turned out to be 1.77 nM, the koff came to 0.000193 s⁻¹ and the kon came to 109000 M⁻¹ s⁻¹.

Turning to B15, the Kd amounted to 13.9 nM, the koff came out at 0.000611 s⁻¹ and the kon was found to be 43900 M⁻¹ s⁻¹.

Take B16: the Kd was determined as 8.07 nM, the koff is 0.00085 s⁻¹ and the kon was determined as 105000 M⁻¹ s⁻¹.

For B17, the Kd is 13.4 nM, the koff turned out to be 0.00139 s⁻¹ and the kon was 104000 M⁻¹ s⁻¹.

Consider B18, for which the Kd came out at 7.91 nM, the koff turned out to be 0.000786 s⁻¹ and the kon was 99300 M⁻¹ s⁻¹.
